In paper doi:10.1101/2021.04.01.438030:

Target: SNAP-GLP-1R (glucagon-like peptide-1 receptor with an N-terminal SNAP-tag) on HEK293-SNAP-GLP-1R cells (UniProt P43220)
Test: FRET

UniProt P43220, sequence (P43220 24-463): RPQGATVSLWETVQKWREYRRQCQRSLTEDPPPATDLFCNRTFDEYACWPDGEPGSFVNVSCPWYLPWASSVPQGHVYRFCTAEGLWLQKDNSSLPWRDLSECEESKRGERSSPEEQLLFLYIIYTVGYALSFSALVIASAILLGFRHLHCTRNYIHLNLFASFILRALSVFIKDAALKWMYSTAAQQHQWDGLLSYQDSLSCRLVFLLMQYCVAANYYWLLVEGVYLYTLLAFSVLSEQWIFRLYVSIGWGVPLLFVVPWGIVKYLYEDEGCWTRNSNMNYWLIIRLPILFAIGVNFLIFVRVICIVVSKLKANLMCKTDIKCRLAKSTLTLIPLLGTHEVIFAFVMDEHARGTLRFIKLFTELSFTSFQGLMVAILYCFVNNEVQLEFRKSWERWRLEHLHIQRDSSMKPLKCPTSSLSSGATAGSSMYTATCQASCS

## exendin-4-C16 (from UniProt P26349 48-87)
  Ki: 1.6 nM

## exendin-4 (from UniProt P26349 48-87)
  Ki: 0.63 nM
